Key:
[1] = target: NF-kB p65/p50 heterodimer (RelA/NFKB1) (Homo sapiens, UniProt Q04206;P19838 Q04206:1-551,P19838:1-433); experiment: EMSA; competition vs 32P 113/114 probe; settings: protein: extract; tags: none; nuclear extract of LPS-stimulated THP-1 cells
Description: (§1) The EMSA assay was employed to characterize oligonucleotide decoys for the NF-κB transcription factor. […] Using the above modified oligonucleotides to compete for binding for the above-mentioned NF-κB family members, it was possible to compare the binding affinity of these oligonucleotides against the high affinity radiolabeled probe and each other. This assay has also enabled the design of a decoy which selectively binds particular members of the NF-κB family. By using increasing concentrations of various oligonucleotides, it was observed that, by deleting or changing targeted residues in the binding site, it was possible to specifically decrease the binding of the decoy molecule to p50/p50 homodimers, while retaining the affinity for p65/p50 and cRel/p50 heterodimers.
(§2) The NF-κB gel shift assays (EMSA) were performed as follows. A double-stranded oligonucleotide containing a consensus NF-κB binding site (5′ […] 3′) (SEQ ID NO: 78) was end-labeled with γ³²P-ATP using T4 Polynucleotide Kinase (Promega). Alternatively, a double-stranded ODN containing a consensus NF-κB binding site from the IL-6 promoter (5′ […] 3′) (SEQ ID NO: 94) was end-labeled with γ³²P-ATP using T4 Polynucleotide Kinase (Promega). One microgram of a nuclear extract prepared from LPS stimulated THP-1 cells (human monocyte cell line) was incubated with 35 fmol of radiolabeled probe in the presence or absence of competing unlabeled NF-κB double-stranded oligonucleotides (dsODN) or scrambled dsODN. The incubations were carried out at room temperature for 30 minutes in a 20 μl reaction volume composed of 10 mM Tris-HCl pH 8, 100 mM KCL, 5 mM MgCl2, 2 mM DTT, 10% Glycerol, 0.1% NP-40, 0.025% BSA and 1 μg Poly-dIdC. The reactions were loaded onto a 6% polyacrylamide gel, subjected to electrophoresis and dried. The dried gels were imaged and quantitated using a Typhoon 8600 PhosphorImager (Amersham) and ImageQuant software.

[2] = target: NF-kB p50/p50 homodimer (NFKB1) (Homo sapiens, UniProt P19838 P19838:1-433); experiment: EMSA; competition vs 32P 113/114 probe; settings: protein: extract; tags: none; nuclear extract of LPS-stimulated THP-1 cells; chain copies: 2 (stated homodimer)
Description: as §1, §2

Sequence of NF-kB p65/p50 heterodimer (RelA/NFKB1) (Q04206 whole entry, chain 1 of 2): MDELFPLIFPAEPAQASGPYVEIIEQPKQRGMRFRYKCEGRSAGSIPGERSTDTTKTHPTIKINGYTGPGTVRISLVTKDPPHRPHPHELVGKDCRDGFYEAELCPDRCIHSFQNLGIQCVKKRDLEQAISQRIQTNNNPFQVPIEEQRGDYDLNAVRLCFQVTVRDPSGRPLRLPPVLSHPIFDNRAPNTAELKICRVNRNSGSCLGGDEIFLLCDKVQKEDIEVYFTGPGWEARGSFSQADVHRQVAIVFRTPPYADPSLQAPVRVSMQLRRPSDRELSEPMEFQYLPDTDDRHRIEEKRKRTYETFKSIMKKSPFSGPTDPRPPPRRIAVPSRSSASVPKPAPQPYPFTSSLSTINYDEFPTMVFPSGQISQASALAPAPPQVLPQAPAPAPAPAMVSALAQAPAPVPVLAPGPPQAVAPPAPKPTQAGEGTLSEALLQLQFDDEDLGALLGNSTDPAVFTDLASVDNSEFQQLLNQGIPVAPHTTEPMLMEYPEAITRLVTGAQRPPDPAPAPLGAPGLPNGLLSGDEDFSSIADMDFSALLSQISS
Sequence of NF-kB p65/p50 heterodimer (RelA/NFKB1) (P19838 1-433, chain 2 of 2): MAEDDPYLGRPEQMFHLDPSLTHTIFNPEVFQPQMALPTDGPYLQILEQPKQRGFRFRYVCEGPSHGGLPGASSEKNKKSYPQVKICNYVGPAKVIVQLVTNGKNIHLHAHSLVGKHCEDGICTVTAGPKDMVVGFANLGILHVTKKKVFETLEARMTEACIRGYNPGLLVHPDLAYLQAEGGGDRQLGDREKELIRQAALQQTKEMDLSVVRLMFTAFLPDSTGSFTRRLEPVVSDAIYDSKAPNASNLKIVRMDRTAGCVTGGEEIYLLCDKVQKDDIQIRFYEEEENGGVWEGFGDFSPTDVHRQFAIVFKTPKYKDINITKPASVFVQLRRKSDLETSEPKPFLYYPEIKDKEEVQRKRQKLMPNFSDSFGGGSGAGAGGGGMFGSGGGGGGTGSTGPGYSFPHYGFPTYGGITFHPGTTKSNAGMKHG
Sequence of NF-kB p50/p50 homodimer (NFKB1) (P19838 1-433, one chain of several): as the sequence (P19838 1-433, chain 2 of 2) above

Binder	IC50 [1]	IC50 [2]
153/154 H5/H5 (dsDNA, PS at the 5 3'-most linkages of each strand) DNA 1: AGTTGAGGACTTTCCAGGC DNA 2: GCCTGGAAAGTCCTCAACT	50 fold molar excess	–
153/154 H8/H10 (dsDNA, PS at the 8 (153) and 10 (154) 3'-most linkages) DNA 1: AGTTGAGGACTTTCCAGGC DNA 2: GCCTGGAAAGTCCTCAACT	33 fold molar excess	–
153/154 H3/H3 (dsDNA, PS at the 3 3'-most linkages of each strand) DNA 1: AGTTGAGGACTTTCCAGGC DNA 2: GCCTGGAAAGTCCTCAACT	45 fold molar excess	–
decoy 121 A-V (dsDNA) DNA 1: TCGGGACTTTCCTC DNA 2: GAGGAAAGTCCCGA	25 fold molar excess	34 fold molar excess
decoy 155 E-V (dsDNA) DNA 1: TCGGACTTTCCTC DNA 2: GAGGAAAGTCCGA	81 fold molar excess	97 fold molar excess
decoy 239 C-W' (dsDNA) DNA 1: CTCGGGGACTTTCCCTCA DNA 2: TGAGGGAAAGTCCCCGAG	9 fold molar excess	9 fold molar excess
decoy 197 C-W (dsDNA) DNA 1: CTCGGGGACTTTCCCTGT DNA 2: ACAGGGAAAGTCCCCGAG	26 fold molar excess	17.5 fold molar excess
153/154 H11/PO (dsDNA, strand 153 PS at the 11 3'-most linkages; strand 154 PO) DNA 1: AGTTGAGGACTTTCCAGGC DNA 2: GCCTGGAAAGTCCTCAACT	7.5 fold molar excess	–
decoy 153/154 E-Z (dsDNA) DNA 1: AGTTGAGGACTTTCCAGGC DNA 2: GCCTGGAAAGTCCTCAACT	62.4 fold molar excess	96 fold molar excess
decoy 227 H-V (dsDNA) DNA 1: TCGGATTTCCTC DNA 2: GAGGAAATCCGA	74 fold molar excess	–
153/154 H10/H8 (dsDNA, PS at the 10 (153) and 8 (154) 3'-most linkages) DNA 1: AGTTGAGGACTTTCCAGGC DNA 2: GCCTGGAAAGTCCTCAACT	9 fold molar excess	–
153/154 H9/H9 (dsDNA, PS at the 9 3'-most linkages of each strand) DNA 1: AGTTGAGGACTTTCCAGGC DNA 2: GCCTGGAAAGTCCTCAACT	17 fold molar excess	–
decoy 129 D-V (dsDNA) DNA 1: TCGGGATTTCCTC DNA 2: GAGGAAATCCCGA	37.5 fold molar excess	37.5 fold molar excess
153/154 H4/H4 (dsDNA, PS at the 4 3'-most linkages of each strand) DNA 1: AGTTGAGGACTTTCCAGGC DNA 2: GCCTGGAAAGTCCTCAACT	85 fold molar excess	–
decoy 195 C-V (dsDNA) DNA 1: TCGGGGACTTTCCCTC DNA 2: GAGGGAAAGTCCCCGA	8.5 fold molar excess	9 fold molar excess
decoy 265 I-Z (dsDNA) DNA 1: AGTTGAGGATTTCCCAGGC DNA 2: GCCTGGGAAATCCTCAACT	54 fold molar excess	84 fold molar excess
decoy 151 D-Z (dsDNA) DNA 1: AGTTGAGGGATTTCCAGGC DNA 2: GCCTGGAAATCCCTCAACT	36 fold molar excess	69 fold molar excess
153/154 H6/H6 (dsDNA, PS at the 6 3'-most linkages of each strand) DNA 1: AGTTGAGGACTTTCCAGGC DNA 2: GCCTGGAAAGTCCTCAACT	40 fold molar excess	–
decoy 145 A-Z (dsDNA) DNA 1: AGTTGAGGGACTTTCCAGGC DNA 2: GCCTGGAAAGTCCCTCAACT	8 fold molar excess	8 fold molar excess
153/154 PO/PS (dsDNA, strand 153 PO; strand 154 full PS) DNA 1: AGTTGAGGACTTTCCAGGC DNA 2: GCCTGGAAAGTCCTCAACT	5 fold molar excess	5 fold molar excess
decoy 289 (dsDNA) DNA 1: TGAGGACTTTCCAGGC DNA 2: GCCTGGAAAGTCCTCA	93 fold molar excess	–
decoy 281 E-Z EVEN (dsDNA) DNA 1: TTGAGGACTTTCCAGGC DNA 2: GCCTGGAAAGTCCTCAA	87 fold molar excess	–
decoy 221 C-X (dsDNA) DNA 1: CTGGGGACTTTCCCTC DNA 2: GAGGGAAAGTCCCCAG	25 fold molar excess	25 fold molar excess

Binder	IC50 [1]	IC50 [2]
decoy 123 A-W (dsDNA) DNA 1: CTCGGGACTTTCCTGT DNA 2: ACAGGAAAGTCCCGAG	8 fold molar excess	10 fold molar excess
decoy 295 (dsDNA) DNA 1: TGAGGACTTTCCAGGCTC DNA 2: GAGCCTGGAAAGTCCTCA	92 fold molar excess	–
153/154 H5/PO (dsDNA, strand 153 PS at the 5 3'-most linkages; strand 154 PO) DNA 1: AGTTGAGGACTTTCCAGGC DNA 2: GCCTGGAAAGTCCTCAACT	59 fold molar excess	–
decoy 173 E-Z-4 (dsDNA) DNA 1: TTGAGGACTTTCCAG DNA 2: CTGGAAAGTCCTCAA	55 fold molar excess	–
decoy 309 M-T (dsDNA) DNA 1: CCTTGAAGGGATTTCCCTCC DNA 2: GGAGGGAAATCCCTTCAAGG	45 fold molar excess	50 fold molar excess
decoy 279 E-Z A->C EVEN (dsDNA) DNA 1: TTGCGGACTTTCCAGGC DNA 2: GCCTGGAAAGTCCGCAA	48 fold molar excess	52 fold molar excess
decoy 259 E-Z' (dsDNA) DNA 1: TTGAGGACTTTCCAGGCTC DNA 2: GAGCCTGGAAAGTCCTCAA	87 fold molar excess	85 fold molar excess
decoy 235 L-V (dsDNA) DNA 1: TCGGACTTTCCCTC DNA 2: GAGGGAAAGTCCGA	37 fold molar excess	62.5 fold molar excess
153/154 H10/H10 (dsDNA, PS at the 10 3'-most linkages of each strand) DNA 1: AGTTGAGGACTTTCCAGGC DNA 2: GCCTGGAAAGTCCTCAACT	21 fold molar excess	–
decoy 263 H-Z (dsDNA) DNA 1: AGTTGAGGATTTCCAGGC DNA 2: GCCTGGAAATCCTCAACT	73 fold molar excess	82 fold molar excess
153/154 PO/H11 (dsDNA, strand 153 PO; strand 154 PS at the 11 3'-most linkages) DNA 1: AGTTGAGGACTTTCCAGGC DNA 2: GCCTGGAAAGTCCTCAACT	7.5 fold molar excess	40 fold molar excess
153/154 PO (dsDNA, full phosphodiester, both strands) DNA 1: AGTTGAGGACTTTCCAGGC DNA 2: GCCTGGAAAGTCCTCAACT	58 fold molar excess	92 fold molar excess
153/154 PS/PS (dsDNA, full PS, both strands) DNA 1: AGTTGAGGACTTTCCAGGC DNA 2: GCCTGGAAAGTCCTCAACT	5 fold molar excess	–
decoy 117 E-U (dsDNA) DNA 1: ATGGACTTTCCGT DNA 2: ACGGAAAGTCCAT	72.5 fold molar excess	–
153/154 PO/H5 (dsDNA, strand 153 PO; strand 154 PS at the 5 3'-most linkages) DNA 1: AGTTGAGGACTTTCCAGGC DNA 2: GCCTGGAAAGTCCTCAACT	65 fold molar excess	–
153/154 H7/H7 (dsDNA, PS at the 7 3'-most linkages of each strand) DNA 1: AGTTGAGGACTTTCCAGGC DNA 2: GCCTGGAAAGTCCTCAACT	39 fold molar excess	–
decoy 207 L-Z (dsDNA) DNA 1: AGTTGAGGACTTTCCCAGGC DNA 2: GCCTGGGAAAGTCCTCAACT	20 fold molar excess	45 fold molar excess
153/154 PS/PO (dsDNA, strand 153 full PS; strand 154 PO) DNA 1: AGTTGAGGACTTTCCAGGC DNA 2: GCCTGGAAAGTCCTCAACT	5 fold molar excess	5 fold molar excess
153/154 H8/H8 (dsDNA, PS at the 8 3'-most linkages of each strand) DNA 1: AGTTGAGGACTTTCCAGGC DNA 2: GCCTGGAAAGTCCTCAACT	29 fold molar excess	–
decoy 141 A-Z-2 (dsDNA) DNA 1: GTTGAGGGACTTTCCAGG DNA 2: CCTGGAAAGTCCCTCAAC	7.5 fold molar excess	10 fold molar excess
decoy 177 E-W (dsDNA) DNA 1: CTCGGACTTTCCTGT DNA 2: ACAGGAAAGTCCGAG	57.5 fold molar excess	–
decoy 191 A-X (dsDNA) DNA 1: CTGGGACTTTCCTC DNA 2: GAGGAAAGTCCCAG	19 fold molar excess	22.5 fold molar excess
153/154 H11/H11 (dsDNA, PS at the 11 3'-most linkages of each strand) DNA 1: AGTTGAGGACTTTCCAGGC DNA 2: GCCTGGAAAGTCCTCAACT	24 fold molar excess	27 fold molar excess

— US20070078102A1, “NF-kB oligonucleotide decoy molecules” (published 2007)
